Reference: patent US12098176B2, “Keratin BD-4, preparation method, and pharmaceutical composition and use thereof” (Institute of Materia Medica, Chinese Academy of Medical …, priority 2019, dated 2024)

What was measured:
[1] = test system: yeast-induced fever model in rats; test: Yeast-induced fever model in SD rats; type: in vivo, rat; settings: for Body temperature 2 hours after modeling: 2 h after 20% yeast s.c.; for Body temperature 4 hours after modeling: 4 h after 20% yeast s.c.; for Body temperature 6 hours after modeling: 6 h after 20% yeast s.c.; for Body temperature 8 hours after modeling: 8 h after 20% yeast s.c.; for Effect on increase in body temperature of model rats: vs model group P<0.05
Method: Experimental example 1 The pharmacodynamic test of protein BD-4 (the protein in Example 4) on the fever model of SD rats induced by yeast
• Normal control group; • Model group: yeast fever model; • Positive control group: Aspirin 300 mg/kg group; • Protein BD-4, 10 mg/kg group, 50 mg/kg group. Method:
Preparation of experimental animals: After the experimental animals adapt to the experimental environment (temperature 22° C.±2° C., relative humidity 50%±2%) for 1 day. Pre-adaptation to measure rectal temperature at 8:00 and 15:00, Rats were fasted and water was taken freely 12 h before experiment. let the animal to empty its feces before measuring the rectal temperature. Apply petroleum jelly to the electronic thermometer probe before each temperature measurement. Insert the rat rectum 2 cm (can be marked at 2 cm to ensure that the depth of each insertion is consistent), and record the body temperature after the reading is stable.
Subcutaneous injection of dry yeast to replicate rat fever model: The body temperature of the rats was measured before modeling. Qualified rats with a body temperature of 36.2-37.3° C. were selected and randomly divided into groups with 8 rats in each group. After oral administration of aspirin and different doses of protein BD-4, 20% yeast suspension (10 ml/kg) was injected subcutaneously immediately, and the normal control group was injected intraperitoneally with an equal volume of normal saline. the rats' body temperature was monitored after 2 hours for a total of 8 hours.
According to the body temperature measured at each time point on the day of the experiment, calculate the mean, standard deviation and standard error of the body temperature of each group of rats. The data of each group was compared with TTEST, and P<0.05 was considered as a significant difference.

[2] = test system: PTZ-induced epilepsy in mice; test: Pentylenetetrazole (PTZ) induced epilepsy in mice; type: in vivo, mouse; settings: for Grade IV seizure rate / mortality rate: 10 mice; for Grade IV seizure rate / mortality rate / Number of deaths / Number of Grade IV cases: PTZ 65 mg/kg i.p.; for Number of deaths / Number of Grade IV cases: of 10 mice; for Number of Grade IV cases: 15 min observation; for Level III onset latency / Grade IV onset latency: mean ± SEM; for Grade IV onset latency: no grade IV attack recorded as 900 s
Method: Experiment Grouping: • Model group; • Retigabine 60 mg/kg group; • Protein BD-4, 50 mg/kg group, 200 mg/kg group; Method: Model Preparation and Administration:
Administer once in the afternoon the day before modeling, On the day of modeling, intraperitoneal injection of PTZ-65 mg/kg (modeling agent) 1 hour after gavage of the test drug, the positive drug can be administered once half an hour before modeling. Continue to observe for 15 minutes after injection of PTZ.
Observation index: 1) Seizure condition: Onset time of grade III to grade VI; 2) Death situation
Onset level: Refer to Racine grading standard: Level 0: No response; Grade I: manifested as twitching of facial muscles or the corners of the mouth; Level II: Can nod; Grade III: twitching of one limb; Grade IV: Rigidity or body twitching; Grade V: Generalized epilepsy (Generalized tonic seizures).
Count the number of seizures and deaths in each group of mice in the experiment; Level III and IV incubation period. The incubation period of mice that have not attacked to grade IV is recorded as the maximum of 900 seconds. Chi-square test was used for statistics of the number of cases. Calculate the mean and standard error of the incubation period. Use TTEST to compare the model group with other groups, and P<0.05 is considered as a significant difference.

[3] = test system: mice cough induced by ammonia water; test: Antitussive test, cough induced by ammonia water in mice; type: in vivo, mouse; settings: for Incubation period: cough latency; for Incubation period / Number of coughs: X ± SEM; for Number of coughs: within 2 minutes
Method: Experimental example 6 The effect of protein BD-4 (Example 4 protein) on the antitussive effect of the cough induced by ammonia water in mice. Animals: male ICR mice; Drugs and reagents: dextromethorphan hydrobromide, ammonia, 0.2% CMC-Na, protein BD-4; Apparatus: Compressed nebulizer (403T type), balance (XS105DU type). Experiment Grouping: • Solvent control group; • Dextromethorphan 15 mg/kg group; • Protein BD-4, 20 mg/kg group, 50 mg/kg group. Method: Model Preparation and Administration:
Dextromethorphan and different doses of protein BD-4 (administration volume 10 ml/kg) were given orally in groups, and the solvent control group was given the same volume of distilled water. One hour later, it was put into a sealed box and atomized 10% ammonia water for 10 seconds, and then observed and recorded the incubation period of cough in mice and the number of coughs in 2 minutes.
Record the time point of oral administration, the time point of atomization experiment, the incubation period of mice cough and the number of coughs within 2 minutes, respectively. The incubation period of cough refers to the number of seconds from the start of the atomization of ammonia to the occurrence of cough. The performance of coughing in mice is based on contraction of their abdominal muscles (breast contraction) and opening their mouths at the same time. Calculate the mean and standard error of each group of data, use TTEST to compare the model group with other groups, and P<0.05 is considered as a significant difference.

B1: BD-4: recombinant keratin, amino acid sequence SEQ ID NO: 1, expressed in E. coli; the protein of Example 4 was tested (protein, listed as Bos taurus)
chain: MSYSCCLPNLSFRSSCSSRPCVPSSCCGTTLPGACNIPANVGSCNWFCEGSFNGSEKETMQFLNDRLASYLEKVRQLERDNAELESRILERSQQQEPLVCPNYQSYFRTIEELQQKILCSKSENARLVVQIDNAKLASDDFRTKYETEVSLRQLVEADLNGLRRILDELTLCKSDLEARVESLKEELICLKQNHEQEVNTLRSQLGDRLNVEVDAAPTVDLNRVLNETRAQYEALVETNRRDVEEWYIRQTEELNKQVVSSSEQLQSYQAEIIELRRTVNALEVELQAQHNLRDSLENTLTETEARYSCQLAQVQGLIGNVESQLAEIRSDLERQNQEYQVLLDVRARLECEINTYRGLLDSEDCKLPCNPCATTNACERPCISNPCVSRARCGPCNTFVH
Body temperature 2 hours after modeling ([1]; 10 mg/kg oral): 36.7 ± 0.1 °C | Body temperature 4 hours after modeling ([1]; 10 mg/kg oral): 37.1 ± 0.1 °C | Body temperature 6 hours after modeling ([1]; 10 mg/kg oral): 37.6 ± 0.1 °C | Body temperature 8 hours after modeling ([1]; 10 mg/kg oral): 37.6 ± 0.2 °C | Effect on increase in body temperature of model rats ([1]; 10 mg/kg, 4 hour after modeling): significantly inhibit the increase in body temperature | Body temperature 2 hours after modeling ([1]; 50 mg/kg oral): 36.6 ± 0.1 °C | Body temperature 4 hours after modeling ([1]; 50 mg/kg oral): 37.4 ± 0.1 °C | Body temperature 6 hours after modeling ([1]; 50 mg/kg oral): 37.5 ± 0.1 °C | Body temperature 8 hours after modeling ([1]; 50 mg/kg oral): 37.6 ± 0.1 °C | Effect on increase in body temperature of model rats ([1]; 50 mg/kg, 8 hours after modeling): significantly inhibit the increase in body temperature | Epilepsy grade III incubation period, comparison with model group ([2]; 50 mg/kg): statistically different from the model group | Grade IV seizure rate ([2]; 50 mg/kg gavage): 80% | mortality rate ([2]; 50 mg/kg gavage): 10% | Number of deaths ([2]; 50 mg/kg gavage): 1 | Number of Grade IV cases ([2]; 50 mg/kg gavage): 8 | Level III onset latency ([2]; 50 mg/kg): 91 ± 12 s | Grade IV onset latency ([2]; 50 mg/kg): 308 ± 103 s | Epilepsy grade III incubation period, comparison with model group ([2]; 200 mg/kg): statistically different from the model group | Grade IV seizure rate ([2]; 200 mg/kg gavage): 70% | mortality rate ([2]; 200 mg/kg gavage): 0 | Number of deaths ([2]; 200 mg/kg gavage): 0 | Number of Grade IV cases ([2]; 200 mg/kg gavage): 7 | Level III onset latency ([2]; 200 mg/kg): 89 ± 8 s | Grade IV onset latency ([2]; 200 mg/kg): 493 ± 113 s | Incubation period ([3]; 20 mg/kg oral): 34.0 ± 2.4 s | Number of coughs ([3]; 20 mg/kg oral): 55.9 ± 3.5 | Cough incubation period vs solvent control group ([3]; 20 mg/kg, P<0.05): significant improvement | Number of coughs vs solvent control group ([3]; 20 mg/kg, P<0.05): significant improvement | Incubation period ([3]; 50 mg/kg oral): 33.2 ± 3.9 s | Number of coughs ([3]; 50 mg/kg oral): 62.1 ± 3.7 | Number of coughs vs solvent control group ([3]; 50 mg/kg, P<0.05): significant improvement
